Positions count from the first letter of the chain named.
T1: VCAM (Panvera) (UniProt P19320 25-698, limits assumed)
T1 sequence (looked up): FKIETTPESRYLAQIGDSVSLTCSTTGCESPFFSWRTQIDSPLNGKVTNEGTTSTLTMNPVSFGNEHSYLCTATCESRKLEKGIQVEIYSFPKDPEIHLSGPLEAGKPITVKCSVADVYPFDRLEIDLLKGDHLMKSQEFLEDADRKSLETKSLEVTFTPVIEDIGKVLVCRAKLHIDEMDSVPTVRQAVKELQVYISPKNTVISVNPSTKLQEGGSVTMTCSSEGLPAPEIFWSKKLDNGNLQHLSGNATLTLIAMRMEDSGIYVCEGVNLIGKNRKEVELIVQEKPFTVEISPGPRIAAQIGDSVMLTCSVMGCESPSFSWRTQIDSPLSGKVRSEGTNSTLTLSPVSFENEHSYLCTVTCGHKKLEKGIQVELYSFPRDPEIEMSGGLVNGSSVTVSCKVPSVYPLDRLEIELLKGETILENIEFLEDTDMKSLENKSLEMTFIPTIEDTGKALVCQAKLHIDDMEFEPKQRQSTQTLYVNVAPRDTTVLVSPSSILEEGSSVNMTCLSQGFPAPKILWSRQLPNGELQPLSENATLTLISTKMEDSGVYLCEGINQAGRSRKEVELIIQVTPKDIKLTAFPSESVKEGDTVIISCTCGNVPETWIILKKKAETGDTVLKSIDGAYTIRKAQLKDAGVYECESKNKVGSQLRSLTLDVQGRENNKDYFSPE

B1: anti-MAdCAM monoclonal antibody 7.20.5 (antibody, human IgG2, kappa, V domains shown)
VH: QVQLQESGPGLVKPSETLSLTCTVSGSSISSYHWNWIRQPAGKGLEWIGRIYTSGSTNYNPSLKSRVTMSLDTSKNQFSLKLSSVTAADTAVYYCAREGVRYYYASGSYYYGLDVWGQGTTVTVSS
VL: not shown
notes: fully human IgG2 kappa from hybridoma; signal peptide left out
B2: anti-MAdCAM monoclonal antibody 6.34.2 (antibody, human IgG4, kappa, V domains shown)
VH: QVQLVESGGGVVQPGRSLRLSCAASGFTFSSYGMHWVRQAPGKGLEWVAVISNDGNNKYYADSVKGRFTISRDNSKNTLYLQMNSLSAEDTAVYYCARDSTAITYYYYGMDVWGQGTTVTVSS
VL: DIQMTQSPSSLSASVGDRVTITCRASQNISSYLNWFQQKPGKAPKLLIYAASGLKRGVPSRFSGSGSGTDFTLTIRTLQPDDFATYSCHQSYSLPFTFGPGTKVDIKR
notes: fully human IgG4 kappa from hybridoma; signal peptide left out; kappa chain stained positive for glycosylation
B3: anti-MAdCAM monoclonal antibody 6.14.2 (antibody, human IgG4, kappa, V domains shown)
VH: EVQLLESGGGLVQPGGSLRLSCAASGLTFNNSAMTWVRQAPGKGLEWVSTTSGSGGTTYYADSVKGRFTISRDSPKNTLYLQMNSLRAEDTAVYYCAARGYSYGTTPYEYWGQGTLVTVSS
VL: DIQMTQSPSSLSASVGDRVTITCRASRSISSYLNWYQQKPGKAPKVLIFFVSSLQSGVPSRFSGSGSGTDFTLTISSLQPEDFATYYCQQNYIPPITFGQGTRLEIRR
B4: anti-MAdCAM monoclonal antibody 6.77.1 (antibody, human IgG4, kappa, V domains shown)
VH: EVQLVESGGGLVKPGGSLRLSCAASGFTFSSYSMNWVRQAPGKGLEWVSSISSSSSYIYYADSVKGRFTISRDNAKNSLYLQMNSLRAEDTAVYYCARDGYSSGWSYYYYYGMDVWGQGTTVTVSS
VL: DIVMTQTPLSLSVTPGQPASISCNSSQSLLLSDGKTYLNWYLQKPGQPPQLLIYEVSNRFSGVPDRFSGSGSGTDFTLKISRVEAEDVGVYSCMQSIQLMCSFGQGTKLEIKR
notes: as for B2
B5: anti-MAdCAM monoclonal antibody 7.16.6 (antibody, human IgG2, kappa, V domains shown)
VH: QVQLVQSGAEVKKPGASVKVSCKASGYTFTSYGINWVRQAPGQGLEWMGWISVYSGNTNYAQKVQGRVTMTADTSTSTAYMDLRSLRSDDTAVYYCAREGSSSSGDYYYGMDVWGQGTTVTVSS
VL: DIVMTQTPLSLSVTPGQPASISCKSSQSLLHTDGTTYLYWYLQKPGQPPQLLIYEVSNRFSGVPDRFSGSGSGTDFTLKISRVEAEDVGIYYCMQNIQLPWTFGQGTKVEIKR
B6: anti-MAdCAM monoclonal antibody 6.67.1 (antibody, human IgG4, kappa, V domains shown)
VH: QVQLQESGPGLVKPSETLSLTCTVSGDSISSNYWSWIRQPAGKGLEWIGRIYTSGGTNSNPSLRGRVTILADTSKNQFSLKLSSVTAADTAVYYCARDRITIIRGLIPSFFDYWGQGTLVTVSS
VL: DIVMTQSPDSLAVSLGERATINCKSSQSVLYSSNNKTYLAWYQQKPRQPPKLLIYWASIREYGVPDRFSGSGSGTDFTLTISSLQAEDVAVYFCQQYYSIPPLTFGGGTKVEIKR
notes: as for B2
B7: anti-MAdCAM monoclonal antibody 6.73.2 (antibody, human IgG4, kappa, V domains shown)
VH: EVQLLESGGDLVQPGGSLRLSCAASGFTFRSYAMNWVRQAPGKGLEWVSVISGRGGTTYYADSVKGRFTISRDNSKNTLYLQMNSLRAEDAAVYYCAKIAVAGEGLYYYYGMDVWGQGTTVTVSS
VL: DIQMTQSPSSLSASVGDRVTFTCRASQNITNYLNWYQQKPGKAPKLLIYAASSLPRGVPSRFRGSGSGTDFTLTISSLQPEDFATYYCQQSYSNPPECGFGQGTTLDIKR
B8: anti-MAdCAM monoclonal antibody 6.22.2 (antibody, human IgG4, kappa, V domains shown)
VH: QVQLVESGGGVVQPGRSLRLSCAASGHTFSSDGMHWVRQAPGKGLEWVAIIWYDGSNKYYADSVKGRFTISRDNSKNTLYLQMNSLRAEDTAVYYCARDPGYYYGMDVWGQGTTVTVSS
VL: EIVLTQSPDFQSVTPKEKVTITCRASQRIGSSLHWYQQKPDQSPKLLIKYASQSFSGVPSRFSGSGSGTNFTLTINGLEAEDAATYYCHQSGRLPLTFGGGTKVEIKR
notes: as for B2
B9: anti-MAdCAM monoclonal antibody 1.7.2 (antibody, human IgG2, kappa, V domains shown)
VH: EVQLVESGGGLVKPGGSLRLSCVASGFTFTNAWMIWVRQAPGKGLEWVGRIKRKTDGGTTDYAAPVKGRFTISRDDSKNTLYLQMNSLKTEDTAVYYCTTGGVAEDYWGQGTLVTVSS
VL: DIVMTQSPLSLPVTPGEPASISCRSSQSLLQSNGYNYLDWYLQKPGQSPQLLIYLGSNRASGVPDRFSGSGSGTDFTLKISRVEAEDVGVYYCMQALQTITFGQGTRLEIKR
B10: anti-MAdCAM monoclonal antibody 1.8.2 (antibody, human IgG2, kappa, V domains shown)
VH: B9 VH with A24V
VL: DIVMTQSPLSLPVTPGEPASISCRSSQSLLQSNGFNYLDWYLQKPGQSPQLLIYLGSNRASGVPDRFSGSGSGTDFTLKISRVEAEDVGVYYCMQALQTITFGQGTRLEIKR
B11: modified anti-MAdCAM monoclonal antibody 6.34.2-mod (antibody, human IgG2, kappa, V domains shown)
VH: B2 VH with S87R
VL: B2 VL with N28S, F36Y, R76S, T77S, D81E, S87Y
notes: human IgG2 kappa, made in HEK 293T cells; signal peptide left out
B12: modified anti-MAdCAM monoclonal antibody 7.26.4-mod (antibody, human IgG2, kappa, V domains shown)
VH: B5 VH with K23E, N35D, V64L, T71S, A72T, D82E
VL: B5 VL with H31Y, T32S, T35K, Y39F, I90V, N96S
notes: human IgG2 kappa, parental heavy chain with modified kappa chain, made in HEK 293T cells; signal peptide left out
B13: modified anti-MAdCAM monoclonal antibody 6.77.1-mod (antibody, human IgG2, kappa, V domains shown)
VH: B4 VH
VL: B4 VL with N24K, C101S
notes: as for B11
B14: modified anti-MAdCAM monoclonal antibody 6.67.1-mod (antibody, human IgG2, kappa, V domains shown)
VH: B6 VH with I69M, L70S, A71V
VL: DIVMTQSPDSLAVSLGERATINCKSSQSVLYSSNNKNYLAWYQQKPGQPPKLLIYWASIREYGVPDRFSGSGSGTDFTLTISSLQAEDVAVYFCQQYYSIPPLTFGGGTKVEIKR
notes: as for B11
B15: modified anti-MAdCAM monoclonal antibody 6.22.2-mod (antibody, human IgG2, kappa, V domains shown)
VH: B8 VH with H27F
VL: B8 VL with N70D, G77S
notes: as for B11

biological target: T2, MAdCAM-IgG1 Fc fusion protein (human); test: adhesion of calcein-loaded α4β7+ JY cells to coated MAdCAM-IgG1 Fc, blocked by antibody
T2 construct: Expressed in CHO-DHFR cells; also called MAdCAM-IgFc; soluble MAdCAM (in the sandwich ELISA)
T2 sequence (chain, as listed by the source limits assumed): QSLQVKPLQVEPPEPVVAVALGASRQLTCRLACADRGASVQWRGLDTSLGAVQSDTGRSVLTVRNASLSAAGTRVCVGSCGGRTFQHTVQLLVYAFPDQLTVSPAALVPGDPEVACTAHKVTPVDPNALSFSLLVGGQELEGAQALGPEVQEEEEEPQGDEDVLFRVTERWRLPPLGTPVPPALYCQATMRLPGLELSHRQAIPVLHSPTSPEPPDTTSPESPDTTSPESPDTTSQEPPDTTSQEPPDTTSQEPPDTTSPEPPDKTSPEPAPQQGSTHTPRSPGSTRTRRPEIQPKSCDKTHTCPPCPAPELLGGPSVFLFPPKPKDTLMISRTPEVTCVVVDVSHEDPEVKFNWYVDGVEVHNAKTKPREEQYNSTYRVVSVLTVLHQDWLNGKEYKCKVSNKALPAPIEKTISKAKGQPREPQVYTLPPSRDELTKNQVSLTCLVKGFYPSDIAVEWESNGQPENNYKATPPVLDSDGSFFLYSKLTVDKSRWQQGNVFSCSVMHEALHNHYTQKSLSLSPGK
Protocol: (§1) The cells were washed twice with RPMI 1640 media (Gibco) containing 2 mM L-glutamine (Gibco) by centrifugation (240 g), resuspending the final cell pellet at 2×10⁶ cells/mL in RPMI 1640 for Calcein AM loading. Calcein AM (Molecular Probes #C-3099) was added to the cells as a 1:200 dilution in DMSO (ca. final concentration 5 μM) and the cells protected from light during the course of the incubation (37° C. for 30 min). During this cell incubation step the antibodies to be tested, were diluted as follows: for single dose testing, the antibodies were made up to 3 μg/mL (1 μg/mL final) in 0.1 mg/mL BSA (Sigma#A3059) in PBS; for full IC₅₀ curves, the antibodies were diluted in 0.1 mg/mL BSA/PBS, with 3 μg/mL (1 μg/mL final) being the top concentration, then doubling dilutions (1:2 ratio) across the plate. The final well of the row was used for determining total binding, so 0.1 mg/ml BSA in PBS was used.
After blocking, the plate contents were flicked out and 50 μL of antibodies/controls were added to each well and the plate incubated at 37° C. for 20 min. During this time, Calcein-loaded JY cells were washed once with RPMI 1640 media containing 10% fetal bovine serum and once with 1 mg/mL BSA/PBS by centrifugation, resuspending the final cell pellet to 1×10⁶/mL in 1 mg/mL BSA/PBS. 100 μL of cells were added to each well of the U bottomed plate, the plate sealed, briefly centrifuged (1000 rpm for 2 min) and the plate then incubated at 37° C. for 45 min. At the end of this time, the plates were washed with a Skatron plate washer and fluorescence measured using a Wallac Victor² 1420 Multilabel Reader (excitation λ 485 nm, emission λ 535 nm count from top, 8 mm from bottom of plate, for 0.1 sec with normal emission aperture). For each antibody concentration, percent adhesion was expressed as a percentage of maximal fluorescence response in the absence of any antibody minus fluorescence associated with non-specific binding. […]

IC50 [µg/mL] | Binder
< 0.1 | B1

biological target: Fibronectin cell binding fragment (110 Kd, Europa Bioproducts Ltd, Cat. No. UBF4215-18) (UniProt P02751-1 722-1635); test: cell-based or functional assay
Sequence (P02751 other isoform, or with tags, fused parts or gaps limits assumed): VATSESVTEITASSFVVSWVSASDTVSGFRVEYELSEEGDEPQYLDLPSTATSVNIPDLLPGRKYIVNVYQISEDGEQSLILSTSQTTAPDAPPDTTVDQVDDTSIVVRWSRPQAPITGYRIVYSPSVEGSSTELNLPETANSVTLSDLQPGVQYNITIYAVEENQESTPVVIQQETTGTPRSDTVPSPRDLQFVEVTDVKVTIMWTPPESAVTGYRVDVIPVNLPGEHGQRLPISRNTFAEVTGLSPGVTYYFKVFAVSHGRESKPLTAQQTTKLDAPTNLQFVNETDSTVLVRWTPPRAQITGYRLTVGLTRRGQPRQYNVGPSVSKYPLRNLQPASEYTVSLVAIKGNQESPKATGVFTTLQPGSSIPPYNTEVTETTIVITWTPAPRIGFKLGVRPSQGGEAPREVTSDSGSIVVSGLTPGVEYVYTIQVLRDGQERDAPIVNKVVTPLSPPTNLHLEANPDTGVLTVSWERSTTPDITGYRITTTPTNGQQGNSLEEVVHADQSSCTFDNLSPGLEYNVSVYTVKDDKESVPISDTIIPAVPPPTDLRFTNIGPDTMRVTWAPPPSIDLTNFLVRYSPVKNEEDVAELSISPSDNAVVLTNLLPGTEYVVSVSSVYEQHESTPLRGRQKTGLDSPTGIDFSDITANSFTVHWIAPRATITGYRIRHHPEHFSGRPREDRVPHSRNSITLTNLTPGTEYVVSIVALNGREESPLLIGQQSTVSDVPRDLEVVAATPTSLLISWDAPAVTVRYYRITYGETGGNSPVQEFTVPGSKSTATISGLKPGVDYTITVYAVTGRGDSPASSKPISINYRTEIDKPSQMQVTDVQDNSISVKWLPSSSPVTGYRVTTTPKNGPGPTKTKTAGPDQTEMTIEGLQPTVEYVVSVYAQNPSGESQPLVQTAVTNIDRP

inhibition of adhesion of α4β1+/α5β1+ Jurkat T-cells to coated Fibronectin cell binding fragment [fold] | Binder
> 100 | B2
> 100 | B3
> 100 | B1
> 100 | B4
> 100 | B5
> 100 | B6
> 100 | B7
> 100 | B8
> 100 | B9
> 100 | B10

biological target: T1, VCAM (Panvera); test: cell-based or functional assay

inhibition of adhesion of α4β1+/α5β1+ Jurkat T-cells to coated VCAM [fold] | Binder
> 100 | B2
> 100 | B3
> 100 | B1
> 100 | B4
> 100 | B5
> 100 | B6
> 100 | B7
> 100 | B8
> 100 | B9
> 100 | B10

biological target: T2, MAdCAM-IgG1 Fc fusion protein; test: MAdCAM-IgG1 Fc fusion / JY cell adhesion assay, mean IC50
Protocol: as §1
After blocking, the plate contents were flicked out and 50 μL of antibodies/controls were added to each well and the plate incubated at 37° C. for 20 min. During this time, Calcein-loaded JY cells were washed once with RPMI 1640 media containing 10% fetal bovine serum and once with 1 mg/mL BSA/PBS by centrifugation, resuspending the final cell pellet to 1×10⁶/mL in 1 mg/mL BSA/PBS. 100 μL of cells were added to each well of the U bottomed plate, the plate sealed, briefly centrifuged (1000 rpm for 2 min) and the plate then incubated at 37° C. for 45 min. At the end of this time, the plates were washed with a Skatron plate washer and fluorescence measured using a Wallac Victor² 1420 Multilabel Reader (excitation λ 485 nm, emission λ 535 nm count from top, 8 mm from bottom of plate, for 0.1 sec with normal emission aperture). For each antibody concentration, percent adhesion was expressed as a percentage of maximal fluorescence response in the absence of any antibody minus fluorescence associated with non-specific binding. The IC₅₀ value is defined as the anti-MAdCAM antibody concentration at which the adhesion response is decreased to 50% of the response in the absence of anti-MAdCAM antibody.

IC50 [µg/mL] | Binder
0.013 | B2
0.049 | B11
0.033 | B12
0.077 | B13
0.013 | B6
0.037 | B14
0.018 | B8
0.058 | B15

Reference: US20070166308A1 (Amgen, published 2007)
